# Patent US20230176070A1 (published 2023)
# Positions count from the first letter of the chain named.
# B1: H24 (VHH)
# VHH: QVQLVESGGGLVQAGGSLRLSCVSSGRTYRWNAMGWFRQAPGKEREFVAAIDWDGRNTDYADSVKGRFTISRDNAKNTVYLQMNSLKVEDTAIYYCAAREWGSGGYSSIASYAYWGQGTQVTVSS
# B2: G82 (VHH)
# VHH: HVQLVESGGGLVQAGGSLRLSCAASGKIFSLSTMGWYRQAPGKQRELVAALTSGGSTNYADSVKGRFTISRDNAKYTTYLQMNSLKPEDTAVYYCNVRYYSGYDGYESNSWGQGTQVTVSS
# B3: G33 (VHH)
# VHH: QMGRNSAEVQLVESGGSLRLSCSVSGGPFTSNGMGWYRQAPGKEREWVAAITNSGSANYADSVKGRFTVSMVNANNTMYLQMNNLKPDDTAVYYCNVAGWPHGYWGQGTQVTVSS
# B4: G47 (VHH)
# VHH: QVQLVESGGGLVQAGGSLRLSCAASERIFSNYAMGWFRQAPGKEREFVASIRGSGSQTSYADSVKGRFTISRDGAKDTVDLQMNSLKPEDTAVYYCSAKKYCGSTYNRAEGYDYWGQGTQVTVSS
# B5: G85 (VHH)
# VHH: HVQLVESGGGLVQPGGSLRLSCAASGFTFSTYAMGWVRQAPGKGPEWVATIYSKGDTTHYANSAKGRFTISRDNARNTLYLQMNSLKPEDTAVYYCAKGISDSYLRVESNYRGQGTQVTVSS
# B6: G2 (VHH)
# VHH: EVQLVESGGDLVQAGGSLRLSCSASGNIFKINDMGWYRQAPGKQRELVARISSSGNTNYADSVKGRFTISRDNGKNTVYLQMNRVKPEDTAVYYCNADVQVSRNYEYEYWGQGTQVTVSS
# B7: G32 (VHH)
# VHH: QVQLVESGGGLVRAGDSLRLSCVVSGRPISSYAMAWFRQAPGKDREVVAGISANGDRTHYADSIKGRFTVSRDNAKNSMTLQMNKLKPEDTAVYYCAADSLTEGGYGLTGDFDYWGQGTQVTVSS
# B8: G22 (VHH)
# VHH: QVQLVESGGGSVQAGGSLRLSCAASGRTFSSYSMAWFRQAPGKEREFVAVMNCRYGDTDYPDSVKGRFTMSRDNAKNTLYLQMNSLKPEDTAVYYCAAKLIAYCGSGYYYRRNDYGYWGQGTQVTVSS
# B9: G87 (VHH)
# VHH: B8 VHH with Q1E, S11L, G16D, S33N, M34L, A35G, Q82E, S85N, L100V, I101L
# B10: G13 (VHH)
# VHH: DVQLVESGGGVVQAGGSLRLSCAASGRTFSDYAMGWFRQAPGKEREFVAGVSWSGVDTYYADSVKGRFTISRDNAKNTLYVQMNSLKPEDTAVYYCAAQRYYHGHAKNMRYDYWGQGTQVTVSS
# notes: also called G13(C3)
# B11: G76 (VHH)
# VHH: QVQLVESGGGLVQPGGSLRLSCVVSGFPFSEYAMSWVRQTPEKGREWVSGIYTDGSETLYENSVKGRFTISRDNTKNTLYLQMNNLKPEDTARYYCKLGDPYGVGLRDYEYLGHGTQVTVSS
# B12: G83 (VHH)
# VHH: QVQLVESGGGLVQAGGSLRLSCAASRRTFSIYNMGWFRQAPGKEREFVATITRYGDRTYTADSVKGRFTISSDQAKNTVYLQMNSLNPHDTAVYYCAADSAYSGPDFKHYDYWGQGTQVTVSS
# B13: G29 (VHH)
# VHH: QVQLVESGGGLVQAGDSLLLSCGTSGRTFSSNTMGWFRQAPGKGREFVATITASGRGTNYGDSVRGRFTISRDNDKNTVYLQMNNLKPDDTGVYTCAASDSPYGSRWIEAYGYWGQGTQVTVSS
# B14: G6 (VHH)
# VHH: QVQLVESGGGLVQAGGSLRLSCAASGRTISSYAMGWFRQAPGKERELVARITSSAGSTYYADSVKGRFTISRDNAKNTMYLQMNSLKPEDTAVYYCAVEIVRAQYDYWGQGTQVTVSS
# B15: H1 (VHH)
# VHH: QVQLVESGGGLVQPGGSLRLSCVASGIMFDIYTMRWYRQAPGKQRELVAAITGAGRANYNDDSVKGRFTISRDNAKNTVYLQMNRMKPEDTALYECNTEILGGGPNYWGRGTQVTVSE
# B16: G72 (VHH)
# VHH: QVQLVESGGGLVQPGGSLRLSCATSGSTFSINGIGWYRQVPGIEREFVAGVSTDGKANYADSVAGRFTISINDGKNTAYLQMNSLKPEDTAVYYCNVDSTKGYYWGQGTQVTVSS
# B17: H15 (VHH)
# VHH: QVQLVESGGGLVQAGDSLRLSCAASERTSNYAMGWFRQAPGKEREFVADINHTGGRRKYGDSVKGRFTISRDNAENMVYLQMNNLQVEDTAVYYCATGLRYDVSGYAPDYRYWGRGTQVTVSS
# B18: G36 (VHH)
# VHH: QMGRNSAQVQLVESGGSLRLSCAASGFALSNSYMKWVRQAPGKGPEWVSTIYADGSTYYTDSVKGRFITSRDNSKNTMYLQMSDLKPEDTAVYYCANPSAKGQGTQVTVSS
# B19: G46 (VHH)
# VHH: DVQLVESGGGLVQAGGSLRLSCAASGRTFSRYHMGWFRQAPGKERDVVAAISWSGDSTYYADSVKGRFTISKDNAKNTVYLQMDNLKPEDTAVYYCNVRGGVLRPYDYWGQGTQVTVSS
# B20: G17 (VHH)
# VHH: EVQLVESGGGLVQAGGSLRLSCAASGVTISYWVMGWFRQAPGKEREFVARISWGGERTYYADSVKGRFAISRDNAKNTVYLQMNSLNAEDTAVYYCAADRTGWGHSNSRSEYDYWGQGTQVTVSS
# B21: G48 (VHH)
# VHH: QVQLVESGGGLVQAGGSLRLSCAASGRTFSTLSMGWFRQAPGQGREFVGGINYDGSSVEYADSVKGRFTISRDNAKNMMYLQMNSLKPEDTAAYYCASSRGYNTGTNPLGYDVWGQGTQVTVSS
# B22: G38 (VHH)
# VHH: EVQLVESGGGLVQAGGSLRLSCVASGHTDCISGMGWYRQAPGKERELVAVLIGGGNTYYGDSVKGRFTISKDKAKNTLYLQMKTLKPEDMAVYYCTADDHGSECPNKEMSSTATYWGQGTQVTVSS
# B23: G7 (VHH)
# VHH: QVQLVESGGGLVQPGDSLRLSCAVSGQYVNMAAMGWFRQAPGKEREFVAGISWSDDTDIADSVKGRFTISRDHGKNTVDLQMNSLKPEDTGVYLCAGRFRRLAKDFGEYDYWGQGTQVTVSS
# B24: G9 (VHH)
# VHH: DVQLVESGGGLVQPGGSLRLSCAASGLTLDNYDMAWFRQAPGKEREFVTAINYVGGRTYADSVRGRFTISRDDTKNTVYLQMNSLKPEDTAVYYCAAGLQYGITSLRTRNYNYWGQGTQVTVSS
# B25: G81 (VHH)
# VHH: EVQLVESGGELVQAGGSLRLSCAASGRTDSVTRMAWFRQAPGKEREFVAAITWSSGYTYYPDSVKGRFTISRDNAKNTMYLQMNSLKAEDTAVYICAAAVGVISEYNSWGQGTQVTVSS
# B26: G5 (VHH)
# VHH: EVQLVESGGGVVQPGGSLTLSCAASGFAFRNYAMSWVRQAPGKGPEWVSQINGRGGYTSYADSVKGRFTISRDNTKNTLYLQMNNLKPDDTAVYYCAKDPTQLRWIPVPNYILGSTKGQGTQVTVSS
# B27: G34 (VHH)
# VHH: QVQLVESGGGLVQAGDSLRLSCAASGRTFSRYAMAWFRQAPGKEREFVAGISWTGRFTYYADSVKGRFTISRDDAKNTVYLQMNNLKPEDTGLYFCKVGDPYGVGLREYEWWGPGTQVTVSS
# B28: G95 (VHH)
# VHH: HVQLVESGGGLVQAGGSLRLSCAASGRTFSSYAMAWFRQAVGKEREFVAAVSRSGTNLYYADSVKGRFTISRDTAKNTMYLQMNSLKPEDTALYYCAAGEALRWGIGQQPRSEFFDYWGQGTQVTVSS
# notes: also called G95(C2)
# Key:
# human serum albumin = target: T1, human serum albumin (human, UniProt P02768 25-609); experiment: indirect ELISA, HSA coated
# T1 construct: In the mutant screen wild type HSA came from medium of transfected HeLa cells; also called HSA; wild type HSA
# T1 sequence (P02768 25-609 limits assumed): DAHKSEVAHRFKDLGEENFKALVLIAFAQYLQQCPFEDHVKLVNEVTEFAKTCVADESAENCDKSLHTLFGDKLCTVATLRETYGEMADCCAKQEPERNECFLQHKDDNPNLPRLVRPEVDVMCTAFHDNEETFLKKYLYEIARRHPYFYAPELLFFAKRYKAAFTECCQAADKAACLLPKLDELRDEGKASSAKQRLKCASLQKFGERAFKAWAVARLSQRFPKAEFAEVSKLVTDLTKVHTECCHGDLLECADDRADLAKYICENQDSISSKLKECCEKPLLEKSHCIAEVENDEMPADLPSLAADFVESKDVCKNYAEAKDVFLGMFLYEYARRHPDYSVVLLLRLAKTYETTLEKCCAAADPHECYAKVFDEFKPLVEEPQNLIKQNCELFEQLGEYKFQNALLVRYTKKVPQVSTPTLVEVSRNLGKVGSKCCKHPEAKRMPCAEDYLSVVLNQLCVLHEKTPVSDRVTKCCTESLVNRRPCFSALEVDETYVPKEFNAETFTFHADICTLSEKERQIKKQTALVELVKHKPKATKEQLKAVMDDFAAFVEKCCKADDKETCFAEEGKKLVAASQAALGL
# Experimental: (§1) Indirect ELISA was carried out to evaluate the camelid immune response of an antigen and to quantify the relative affinities of antigen-specific Nbs. An antigen was coated onto a 96-well ELISA plate (R&D system) at an amount of approximately 1-10 ng per well in a coating buffer (15 mM sodium carbonate, 35 mM sodium bicarbonate, pH 9.6) overnight at 4° C. The well surface was then blocked with a blocking buffer (DPBS, 0.05% Tween 20, 5% milk) at room temperature for 2 hours. To test an immune response, the immunized serum was serially 5-fold diluted in the blocking buffer. The diluted sera were incubated with the antigen coated wells at room temperature for 2 hours. HRP-conjugated secondary antibodies against llama Fc (Bethyl) were diluted 1:10,000 in the blocking buffer and incubated with each well for 1 hour at room temperature. […] Nbs of both specific binders for test and scramble negative controls were serially 10-fold diluted from 10 μM to 1 μM in the blocking buffer. HRP-conjugated secondary antibodies against His-tag (Genscript) or T7-tag (Thermo) were diluted 1:5,000 or 1:10,000 in the blocking buffer and incubated for 1 hour at room temperature. Three washes with 1x PBST (DPBS, 0.05% Tween 20) were carried out to remove nonspecific absorbance between incubations. After the final wash, the samples were further incubated under dark with freshly prepared w3,3′,5,5′-Tetramethylbenzidine (TMB) substrate for 10 mins at room temperature to develop the signals. After the STOP solution (R&D system), the plates were read at multiple wavelengths (450 nm and 550 nm) on a plate reader (Multiskan GO, Thermo Fisher). A false positive Nb binder was defined if any of the following two criteria was met: i) the ELISA signal can only be detected at a concentration of 10 μM and was under detected at 1 μM concentration. ii) At 1 μM concentration, a pronounced signal decrease (by more than 10-fold) was detected compared to the signal at 10 μM, while there were no signals can be detected at lower concentrations. The raw data was processed by Prism 7 (GraphPad) to fit into a 4PL curve and to calculate logIC50.
# [1] = target: T2, glutathione S-transferase (UniProt P08515 1-218 = GST); experiment: SPR, GST immobilised;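 further: nanobody analytes injected as dilution series over three orders of magnitude across antigen on a CM5 chip, kinetics fitted by 1:1 Langmuir model, optionally with mass transfer, duplicate runs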
# T2 construct: Expressed in E. coli, purified on GSH resin; also called GST
# T2 sequence (P08515 whole entry): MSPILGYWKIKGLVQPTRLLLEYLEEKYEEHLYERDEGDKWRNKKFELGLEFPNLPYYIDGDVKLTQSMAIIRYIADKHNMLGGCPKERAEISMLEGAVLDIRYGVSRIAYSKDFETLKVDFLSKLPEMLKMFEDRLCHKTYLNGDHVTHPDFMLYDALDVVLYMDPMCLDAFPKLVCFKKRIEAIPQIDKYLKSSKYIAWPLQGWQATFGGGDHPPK
# Experimental: Nb affinity measurement by SPR. Surface plasmon resonance (SPR, Biacore 3000 system, GE Healthcare) was used to measure Nb affinities. Antigen proteins immobilized on the activated CM5 sensor-chip by the following steps. Protein analytes were diluted to 10-30 μg/ml in 10 mM sodium acetate, pH 4.5, and were injected into the SPR system at 5 μl/min for 420 s. The surface of the sensor was then blocked by 1 M ethanolamine-HCl (pH 8.5). For each Nb analyte, a series of dilution (spanning three orders of magnitude) was injected in HBS-EP+ running buffer (GE-Healthcare) containing 2 mM DTT, at a flow rate of 20-30 μl/min for 120-180 s, followed by a dissociation time of 5-20 mins based on dissociation rate. Between each injection, the sensor chip surface was regenerated with the low pH buffer containing 10 mM glycine-HCl (pH 1.5-2.5), or high pH buffer of 20-40 mM NaOH (pH 12-13). The regeneration was performed with a flow rate of 40-50 μl/min for 30 s. The measurements were duplicated and only highly reproducible data was used for analysis. Binding sensorgrams for each Nb were processed and analyzed using BIAevaluation by fitting with 1:1 Langmuir model or 1:1 Langmuir model with mass transfer.
# [2] = target: T2, glutathione S-transferase; experiment: indirect ELISA, GST coated;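 further: nanobody dilution series starting at 10 µM binding plate-bound antigen, HRP anti-His or anti-T7 tag detection, TMB absorbance at 450 nm, logIC50 from four-parameter logistic fit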
# Experimental: as §1
Binder,Kd [1] [nM],koff [1] [s⁻¹],kon [1] [M⁻¹ s⁻¹],ELISA affinity (LogIC50 (oD450nm)) [2],binding result [2],other results
B1,,,,,,binding result (human serum albumin): no binding (tested: Nb titrated from 10 µM)
B2,0.504,0.000561,1.11e+06,7.22,,
B3,,,,,no binding (tested: Nb titrated from 10 µM),
B4,32.4,0.0127,391000,3.86,,
B5,,,,,no binding (tested: Nb titrated from 10 µM),
B6,2000,0.00204,,2.67,,
B7,,,,,no binding (tested: Nb titrated from 10 µM),
B8,40.5,0.00125,30900,2.07,,
B9,,,,,no binding (tested: Nb titrated from 10 µM),
B10,0.36,0.00017,474000,6.74,,
B11,,,,,no binding (tested: Nb titrated from 10 µM),
B12,0.761,0.000751,987000,8.72,,
B13,,,,,no binding (tested: Nb titrated from 10 µM),
B14,,,,,no binding (tested: Nb titrated from 10 µM),
B15,,,,,,ELISA affinity (LogIC50 (oD450nm)) (human serum albumin): 4.92
B16,,,,,no binding (tested: Nb titrated from 10 µM),
B17,,,,,,binding result (human serum albumin): no binding (tested: Nb titrated from 10 µM)
B18,,,,,no binding (tested: Nb titrated from 10 µM),
B19,,,,,no binding (tested: Nb titrated from 10 µM),
B20,0.0217,2.92e-05,1.34e+06,9.81,,
B21,126,0.000753,5930,1.6,,
B22,,,,,no binding (tested: Nb titrated from 10 µM),
B23,268,0.000809,3020,1.89,,
B24,0.177,0.000353,2e+06,8.05,,
B25,,,,,no binding (tested: Nb titrated from 10 µM),
B26,,,,,no binding (tested: Nb titrated from 10 µM),
B27,17.6,0.000462,26300,5.32,,
B28,77,0.00107,13900,3.76,,
